Measurements published in publication PMC5493677, “The role of the FliD C-terminal domain in pentamer formation and interaction with FliT” (Scientific Reports, 2017).
Substitutions are numbered along the chain they refer to.

B1: StFliD_(1–300) (domain or fragment)
chain: MASISSLGVGSNLPLDQLLTDLTKNEKGRLTPITKQQSANSAKLTAYGTLKSALEKFQTANTALNKADLFKSTVASSTTEDLKVSTTAGAAAGTYKINVTQLAAAQSLATKTTFATTKEQLGDTSVTSRTIKIEQPGRKEPLEIKLDKGDTSMEAIRDAINDADSGIAASIVKVKENEFQLVLTANSGTDNTMKITVEGDTKLNDLLAYDSTTNTGNMQELVKAENAKLNVNGIDIERQSNTVTDAPQGITLTLTKKVTDATVTVTKDDTKAKEAIKSWVDAYNSLVDTFSSLTKYTAVE
notes: FliD of Salmonella Typhimurium, residues 1–300; Dimer at 100 μM by SEC-MALS; source: cloned into pRSF-duet
B2: StFliD_(1–467), full-length FliD from Salmonella Typhimurium, wild type (natural protein)
chain: MASISSLGVGSNLPLDQLLTDLTKNEKGRLTPITKQQSANSAKLTAYGTLKSALEKFQTANTALNKADLFKSTVASSTTEDLKVSTTAGAAAGTYKINVTQLAAAQSLATKTTFATTKEQLGDTSVTSRTIKIEQPGRKEPLEIKLDKGDTSMEAIRDAINDADSGIAASIVKVKENEFQLVLTANSGTDNTMKITVEGDTKLNDLLAYDSTTNTGNMQELVKAENAKLNVNGIDIERQSNTVTDAPQGITLTLTKKVTDATVTVTKDDTKAKEAIKSWVDAYNSLVDTFSSLTKYTAVEPGEEASDKNGALLGDSVVRTIQTGIRAQFANSGSNSAFKTMAEIGITQDGTSGKLKIDDDKLTKVLKDNTAAARELLVGDGKETGITTKIATEVKSYLADDGIIDNAQDNVNATLKSLTKQYLSVSNSIDETVARYKAQFTQLDTMMSKLNNTSSYLTQQFTAMNKS
notes: FliD (HAP2, flagellar filament capping protein) of Salmonella Typhimurium, residues 1–467; also called StFliD WT; HAP2; source: E. coli BL21(DE3); co-expressed with StFliT 1–94 and co-purified (glutathione-Sepharose, TEV, Hitrap Q, Superdex 200) for the complex
B3: StFliD_(401–467) (domain or fragment)
chain: DGIIDNAQDNVNATLKSLTKQYLSVSNSIDETVARYKAQFTQLDTMMSKLNNTSSYLTQQFTAMNKS
notes: FliD of Salmonella Typhimurium, residues 401–467; The eluate was cleaved by TEV protease; also called C-terminal helix of StFliD; source: E. coli BL21(DE3), co-expressed with StFliT 1–94, co-purified (glutathione-Sepharose, TEV, Hitrap Q, Superdex 200)
B4: StFliT_(1–94), C-terminus-truncated FliT from Salmonella Typhimurium (domain or fragment)
chain: MTSTVEFINRWQRIALLSQSLLELAQRGEWDLLLQQEVSYLQSIETVMEKQTPPGITRSIQDMVAGYIKQTLDNEQLLKGLLQQRLDELSSLIG
notes: FliT (flagellar export chaperone) of Salmonella Typhimurium, residues 1–94; At the glutathione-Sepharose step of the co-purification the GST tag was still on; it was cut by TEV protease before ion exchange and gel filtration; source: E. coli BL21(DE3); purified alone (glutathione-Sepharose, TEV cleavage, gel filtration) for ITC; co-expressed with StFliD constructs and co-purified for the …
B5: StFliD_(45–467) (domain or fragment)
chain: TAYGTLKSALEKFQTANTALNKADLFKSTVASSTTEDLKVSTTAGAAAGTYKINVTQLAAAQSLATKTTFATTKEQLGDTSVTSRTIKIEQPGRKEPLEIKLDKGDTSMEAIRDAINDADSGIAASIVKVKENEFQLVLTANSGTDNTMKITVEGDTKLNDLLAYDSTTNTGNMQELVKAENAKLNVNGIDIERQSNTVTDAPQGITLTLTKKVTDATVTVTKDDTKAKEAIKSWVDAYNSLVDTFSSLTKYTAVEPGEEASDKNGALLGDSVVRTIQTGIRAQFANSGSNSAFKTMAEIGITQDGTSGKLKIDDDKLTKVLKDNTAAARELLVGDGKETGITTKIATEVKSYLADDGIIDNAQDNVNATLKSLTKQYLSVSNSIDETVARYKAQFTQLDTMMSKLNNTSSYLTQQFTAMNKS
notes: FliD of Salmonella Typhimurium, residues 45–467

Key:
[1] = biological target: the molecule itself; assay: SEC-MALS; samples at 100 μM (Fig. 2c); Superdex 200 10/300 GL in buffer A (20 mM Tris-HCl pH 8.0, 200 mM NaCl), 0.4 mL/min
[2] = biological target: B4; assay: SEC-MALS; samples at 10 μM (Fig. 2c); Superdex 200 10/300 GL in buffer A (20 mM Tris-HCl pH 8.0, 200 mM NaCl), 0.4 mL/min; conditions: both partners purified
[3] = biological target: B4; assay: SEC-MALS; samples at 100 μM (Fig. 2c); Superdex 200 10/300 GL in buffer A (20 mM Tris-HCl pH 8.0, 200 mM NaCl), 0.4 mL/min; conditions: both partners purified
[4] = biological target: B4; assay: SEC-MALS; co-purified complexes (Fig. 1b), concentration not given; Superdex 200 10/300 GL in buffer A (20 mM Tris-HCl pH 8.0, 200 mM NaCl), 0.4 mL/min; conditions: both partners purified
[5] = biological target: T1, StFliD_(1–467) L443R mutant (Salmonella Typhimurium, UniProt P16328 1-467, L443R); assay: ITC; 170 μM StFliT 1–94 injected (2.5 μL, every 200 s) into 26 μM StFliD in the cell; 298 K; buffer A (20 mM Tris-HCl pH 8.0, 200 mM NaCl); conditions: both partners purified
T1 construct: FliD of Salmonella Typhimurium, residues 1–467, with L443R; Monomer by SEC-MALS; also called StFliD L443R; FliD (L443R)
T1 sequence: B2 chain with L443R

[6] = biological target: B2; assay: as above; conditions: both partners purified
[7] = biological target: the molecule itself; assay: SAXS; purified proteins and co-purified complexes, 1.0–10.0 mg/mL, 4 °C; ab initio envelopes (DAMMIF)

B1
stoichiometry N [1]: 2

B2
stoichiometry N [2]: 1 StFliD per StFliT | stoichiometry N [3]: 1 StFliD per StFliT (2:2)

B3
stoichiometry N [4]: 1 StFliD per StFliT

B4
Kd [5]: 3.01 ± 0.1 µM | Kd [6]: 0.2351 ± 0.0008 µM

B5
binding result [7]: binds
